Experimental data taken from publication doi:10.1101/2022.01.02.474068.

Biological target: BTN2A1 B30.2 domain (human)
Assay: SEC-MALS

stoichiometry N: 2
Substance: BTN2A1 B30.2 domain (domain or fragment)
